These results are taken from paper PMC11570498, “A promiscuous mechanism to phase separate eukaryotic carbon fixation in the green lineage” (Nature Plants, 2024).

The target in assay [1] is T1, CsLinker α3 fragment (residues 142–207) (Chlorella sorokiniana UTEX1230).
T1 construct: CsLinker (CSI2_123000012064), Chlorella sorokiniana UTEX1230, residues 142–207: one whole repeat centred on predicted α-helix 3; residues numbered by their position in the full-length CsLinker; From the plasmid His-mEGFP-TEV-α3-TEV-MBP-His; also called single helix α3 fragment; source: E. coli BL21 (DE3), purified (IMAC, TEV cleavage, second IMAC, SEC); not shown: His6, N-terminal, cleaved; …
Description: SPR; Rubisco immobilised as bait, fragments as analyte (prey); Biacore T100/T200, 25 °C; analyte injected at 15 μl/min for 30 s, 360 s dissociation; fit of y = Bmax·x/(KD + x); apparent KD; triplicate. To be noted: both partners purified. (In general: In SPR one partner is held on a chip, and binding of the other changes the refractive index at the surface.)

Assay [2] deals with T2, CsLinker α3–α4 fragment (residues 142–272) (Chlorella sorokiniana UTEX1230).
T2 construct: CsLinker (CSI2_123000012064), Chlorella sorokiniana UTEX1230, residues 142–272: two repeats with predicted α-helices 3 and 4; residues numbered by their position in the full-length CsLinker; From the plasmid His-mEGFP-TEV-α3–α4-TEV-MBP-His; also called α3–α4 double repeat fragment; source: E. coli BL21 (DE3), purified (IMAC, TEV cleavage, second IMAC, SEC); not shown: His6, N-terminal, cleaved; …
The description is as above. Conditions: both partners purified.

B1: Ulva mutabilis Rubisco (UmRubisco) (complex)
chain 1: GVKDYRLTYYTPDYQVKDTDILAAFRMTPQPGVPAEEAGAAVAAESSTGTWTTVWTDGLTSLDRYKGRCYDIEPLGEDDQYIAYIAYPLDLFEEGSVTNLFTSIVGNVFGFKALRALRLEDLRIPPAYVKTFQGPPHGIQVERDKLNKYGRGLLGCTIKPKLGLSAKNYGRAVYECLRGGLDFTKDDENVNSQPFMRWRDRFLFVAEAIYKSQSETGEVKGHYLNATAGTCEEMMERGQFAKDLGVPIVMHDYITGGFTANTTLAHFCRASGLLLHIHRAMHAVIDRQRNHGIHFRVLAKILRMSGGDHLHSGTVVGKLEGEREITLGFVDLMRDDYIEKDRSRGIYFTQDWVSLPGTMPVASGGIHVWHMPALVEIFGDDACLQFGGGTLGHPWGNAPGAAANRVALEACTQARNEGRDLASEGGDVIRAA
chain 2: MRVWTPHNNKMFETFSFLPPLSHGEIARQVDYIIANGWTSCLEFADSDCAYVQDKANIRFGNSASCNYYDNRYWTMWKLPMFGCTNPNEVLGEIDSCKRAFPESYIRLVAFDNIAQCQTIGFLVNRPPRSGDFQSPENRSVA
Consider B1, for which the figures for the Kd in assay [1] and in assay [2] were 162 µM and 1560 nM, respectively.
